Measured values: publication PMC7949152, “A resistant mutant of Plasmodium falciparum purine nucleoside phosphorylase uses wild-type neighbors to maintain parasite survival” (The Journal of Biological Chemistry, 2021)

System: OC[C@H]1O[C@@H](n2cnc3c(O)ncnc32)[C@H](O)[C@@H]1O
Experiment: Michaelis-Menten kinetics, xanthine oxidase-coupled assay (Km)
Assay type: biochemical, Plasmodium falciparum
Settings: phosphate catalytic site

Substance “Plasmodium falciparum purine nucleoside phosphorylase (PfPNP), native subunits (natPNPfus) (Plasmodium falciparum 3D7)” has a Km of 5.4 µM.
